Experimental data reported in US20250382376A1 (FUDAN UNIVERSITY, published 2025).

T1: CD73 on the surface of human cells (human, UniProt P21589 27-549)
T1 construct: whole, on cells; The cell line of each value is named under assay or readout; also called CD73 on the surface of tumor cells; CD73 enzyme on the surface of MDA-MB-231 cells
T1 sequence (looked up): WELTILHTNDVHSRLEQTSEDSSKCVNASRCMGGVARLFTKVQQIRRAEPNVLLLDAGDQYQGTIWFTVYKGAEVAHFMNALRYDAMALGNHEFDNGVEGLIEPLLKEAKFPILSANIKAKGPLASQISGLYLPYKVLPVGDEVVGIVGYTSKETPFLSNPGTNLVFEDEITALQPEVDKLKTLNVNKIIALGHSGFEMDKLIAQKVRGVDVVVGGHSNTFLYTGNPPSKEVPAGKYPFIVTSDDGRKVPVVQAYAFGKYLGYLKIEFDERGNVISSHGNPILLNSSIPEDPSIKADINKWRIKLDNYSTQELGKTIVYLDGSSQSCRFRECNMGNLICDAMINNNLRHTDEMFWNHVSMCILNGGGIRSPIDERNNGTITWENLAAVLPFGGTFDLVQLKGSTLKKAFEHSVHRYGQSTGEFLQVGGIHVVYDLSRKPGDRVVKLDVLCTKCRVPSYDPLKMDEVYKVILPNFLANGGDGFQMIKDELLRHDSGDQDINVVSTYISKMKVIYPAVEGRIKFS

T2: extracellular domain of human CD73 protein, C-terminus polyhistidine-tagged (human, UniProt P21589 27-547)
T2 construct: also the immunogen; also called CD73-ECD; human CD73-ECD
T2 sequence: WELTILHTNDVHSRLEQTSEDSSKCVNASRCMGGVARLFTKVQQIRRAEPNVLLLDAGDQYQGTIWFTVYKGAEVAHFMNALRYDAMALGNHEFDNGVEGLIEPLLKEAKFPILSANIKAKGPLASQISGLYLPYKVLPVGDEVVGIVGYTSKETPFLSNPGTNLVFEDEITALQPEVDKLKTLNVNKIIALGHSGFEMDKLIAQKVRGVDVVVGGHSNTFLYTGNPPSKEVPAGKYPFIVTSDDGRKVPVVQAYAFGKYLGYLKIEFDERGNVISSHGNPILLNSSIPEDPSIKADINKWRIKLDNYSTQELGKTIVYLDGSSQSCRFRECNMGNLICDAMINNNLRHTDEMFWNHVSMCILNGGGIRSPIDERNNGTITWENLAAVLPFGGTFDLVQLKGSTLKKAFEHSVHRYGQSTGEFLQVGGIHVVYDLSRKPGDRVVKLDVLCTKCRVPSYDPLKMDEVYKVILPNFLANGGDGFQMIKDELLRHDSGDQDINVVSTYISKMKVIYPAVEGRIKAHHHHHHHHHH


Experiments:
[1] = biological target: T1, CD73 on the surface of human cells; assay: Flow cytometry on NCI-H1299 cells
Experimental: 100 μL of the test antibodies diluted from 10 μg/mL to 0.016 μg/mL in a 5-fold gradient were used as the primary antibodies, and were mixed with 1×10⁵ tumor cells suspended in 100 μL RPMI-1640 serum-free medium to make a final concentration of 5 μg/mL diluted to 0.008 μg/mL, and then incubated at 4° C. for 1 h. The cells were washed twice with PBS to remove unbound primary antibodies, and then the target cells were incubated with 200 μLPE-labeled secondary antibody at 2 μg/mL at 4° C. for 30 min. The cells were washed twice with PBS to remove unbound secondary antibodies, and finally the cells were resuspended in 200 μL PBS. The binding affinity of the test antibodies to CD73 on the surface of the corresponding cells was measured by flow cytometry.
The binding affinity of the humanized antibodies to NCI-H1299 cells was detected according to the method for determining the binding affinity of CD73 on the surface of tumor cells in Example 5.

[2] = biological target: T2, extracellular domain of human CD73 …; assay: SPR as the filing names it (method of Example 2, ForteBio OCTET R2)
Experimental: Surface plasmon resonance (SPR) assay: Protein A sensor was used to immobilize the antibodies, with an immobilization height of about 1.5 nM. […] Affinity detection: equilibrium for 60 s, binding for 180 s, dissociation for 180 s, at a detection temperature of 25° C. Kinetic characterization analysis was performed using the ForteBio OCTET R2 system.
The affinity of the humanized antibody to the antigen was detected by the surface plasmon resonance (SPR) assay method in Example 2.

[3] = biological target: T2, extracellular domain of human CD73 …; assay: ForteBio Octet (the filing calls it SPR), by the method of Example 2 according to the text; sheet prints 'Loading Sample ID: FDYKSD-02-His'; traces labelled 25, 12.5, 6.25, 3.13
[4] = biological target: T2, extracellular domain of human CD73 …; assay: ELISA on CD73-ECD, 0.8 µL supernatant of antibody expression, second of two readings; PBS 0.19, 0.18
Experimental: (§1) The CD73 protein extracellular region (CD73-ECD) was diluted to 1 μg/mL using the coating solution, and an ELISA plate was coated at 100 μL/well at 4° C. overnight. Excess antigens were washed away, and the plate was blocked with 1% BSA at room temperature for 2 hours. Then, 5-fold gradient dilutions of each monoclonal antibody were added at 100 μL/well and incubated at room temperature for 1 hour. Unbound antibodies were washed away, and an appropriate concentration of Staphylococcal protein A labeled with horseradish peroxidase was added at 100 μL/well and incubated at room temperature for 0.5 hours. Unbound secondary antibodies were washed away, and TMB color development solution was added to react for about 15 minutes. 1M HCL was added at 50 µL/well to terminate the color development reaction, and then the absorbance was measured at 450 nm and the data was analyzed.
(§2) CD73 antigen ELISA binding affinity test was performed according to the method of Example 3.

[5] = biological target: T2, extracellular domain of human CD73 …; assay: ELISA on CD73-ECD, 100 µL supernatant of antibody expression, second of two readings; PBS 0.19, 0.18
[6] = biological target: T2, extracellular domain of human CD73 …; assay: ELISA on coated human CD73-ECD (the text rounds this value to 0.05 µg/mL)
Experimental: as §1
Based on the above mutants, 5-E11ASCS was designed and prepared, and the CD73 antigen ELISA binding affinity test was performed according to the method of Example 3.

[7] = biological target: T2, extracellular domain of human CD73 …; assay: ELISA on CD73-ECD, 20 µL supernatant of antibody expression, first of two readings; PBS 0.19, 0.18
Experimental: as §1, §2

Max MFI [1]	Kd [2]	koff [3]	kon [3]	ELISA reading (not named on the sheet) [4]	ELISA reading (not named on the sheet) [5]	EC50 [6]	ELISA reading (not named on the sheet) [7]	Binder
105000 MFI	0.472 nM	0.000588 s⁻¹	1.25e+06 M⁻¹ s⁻¹	–	–	–	–	chimeric nanobody 3-D7 (Fc fusion, Human-alpaca chimeric antibody (VHH on hIgG1 Fc); Only the VHH is tied to the tested molecule; 37-39 exist for 3-D7-FC1/FC2/FC3; also called original antibody 3-D7) VHH: QRQLVESGGGLVQPGGSLRLSCAASGFLLDYYVIGWFRQAPGKEREGVSCISGSDRSTYYADSVKGRFTISRDNAKNTVYLQMNSLKPEDTAVYFCAADPSPVTVQAMCLPRFPVPYWGQGTQVTVST
–	–	–	–	4.16	4.23	0.0536 µg/mL	4.19	chimeric nanobody 5-E11 (Fc fusion, Human-alpaca chimeric antibody (VHH on hIgG1 Fc); Only the VHH is tied to the tested molecule; also called original antibody 5-E11) VHH: ALQLVESGGGLVQPGGSLRLSCEVSGFTLDYYNIGWFRQAPGKEREGVSCSSNSGGSTYYADSVKGRFTISRDNAKNTVYLQMNSLKPEDTGVYYCAAYRGWHPSLDARVYDYWGQGTEVTVSS
